Results as given in patent US20110319318A1, “COVALENT MILK PROTEIN/ISOTHIOCYANATE COMPLEXES” (NESTEC S.A., priority 2009, published 2011).

Tests used:
[1] = biological target: T1, β-lactoglobulin (BLG) (Bos taurus, UniProt P02754); experiment: Binding of AITC to BLG from disappearance of free -SH / -NH2 groups (Ellman's reagent, OPA); parameters: species or system bovine; conditions: 25° C., pH 8.5
T1 construct: The composition in the major whey protein fraction was 89.22% BLG; purchased Davisco Biopure, lot JE 001-3-922
T1 sequence (P02754 17-178): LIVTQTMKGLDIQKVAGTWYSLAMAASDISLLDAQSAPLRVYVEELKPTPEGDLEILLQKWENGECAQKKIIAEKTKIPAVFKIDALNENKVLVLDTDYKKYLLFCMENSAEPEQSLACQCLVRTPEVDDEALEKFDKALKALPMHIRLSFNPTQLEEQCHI
Experimental: A volume of 50 mL of mixtures was prepared by mixing 1 mM BLG (pH 8.5) with 200 mM AITC in Millipore® water to obtain AITC to BLG molar ratios from 0.1 to 40. Final concentration of ethanol in all sample solutions was adjusted to 5%. Samples were incubated 24 h at room temperature, under agitation (using a roller mixer SRT2, Milian, Switzerland) and protected from light. Upon incubation, contents in free sulfhydryl (—SH) and amino (—NH2) groups were determined using the Ellman's reagent [5,5′-dithio-bis(2-nitrobenzoic acid); DTNB] (Ellman G L. Tissue sulfhydryl groups. 1959. Arch Biochem Biophys, 82, 70-77) and o-phthaldialdehyde (OPA) methods (Hofmann K, Hamm R. Sulfhydryl and disulfide groups in meats. 1978. Adv Food Res, 24, 1-111), respectively.
To determine the amount of total —SH groups sample mixtures were diluted to the final BLG concentration 50 μM in 200 mM Tris-base (Tris(hydrohymethyl)-aminomethan) buffer containing 1% SDS and 8M urea at pH 8.0. 50 μL of 10 mM DTNB in ethanol was added to 3 mL of these samples and they were left 20 min at room temperature under mild agitation. The absorbance at 412 nm was measured against corresponding reagent blanks (1% ethanol in the buffer with DTNB) using an Uvikon® 810 spectrophotometer (Kontron Instruments, Basel, Switzerland). […] Therefore, absorbance values of samples were corrected for the absorbance of corresponding concentrations of AITC. Concentration of SH groups in sample solutions was assessed according to the previously made standard calibration curve. For that purpose L-Cys (Fluka, Switzerland) dissolved in the same buffer in concentration range 0.005-0.1 mM was used.
Quantitative determination of free α- and ε-amino groups was done using the approach based on the method of Goodno et al. (Goodno C. C. Swaisgood H. E., Catignani G. L.; (1981). A fluorimetric assay for available lysine in proteins. Anal. Biochem. 115(1), 203-211.) with modifications done in our laboratory. Briefly, the determination of amino groups was carried out by mixing sample solutions (0.1 mL) with 0.3% (w/v) N-acetyl-L-cystein (Fluka, Switzerland) in borate buffer pH 9.3 (9.1 mL) and 20% SDS (w/w; 0.5 mL). […] Upon incubation, mixtures were allowed to cool down at room temperature for 30 minutes before absorbance reading was done at 340 nm. […] Therefore, absorbance values of samples were corrected for the absorbance of corresponding AITC concentrations. Concentration of free (α- and ε-) amino groups in sample solutions was assessed according to the previously made standard calibration curve. […]
Assuming that one AITC can bind per one —SH group or per one —NH2 group at the time, the molar binding ratio of AITC to BLG (BAITC/BLG) was estimated from measured values for free —SH and —NH2 groups. […]

[2] = Emulsifying properties, 10% sunflower oil-in-water emulsions, stability on storage; format: physicochemical
Experimental: Emulsifying properties of BLG-AITC conjugates, non-heated and heated at pH 7.0 and 4.0 (prepared as described in examples 1 and 2), were evaluated by preparing emulsions containing 10% (w/w) of “high oleic” sunflower oil (Oleifico SABO, Manno, Switzerland). Samples containing BLG-AITC conjugates in the equimolar ratio were diluted to 0.25 mM BLG and mixed with oil in a pyrex tube (D 25 mm, V 35 mL) to a final weight of 20 g. They were pre-homogenized using an Ultra Turrax® T25 equipped with a S25N-10G dispersing head (IKA-Werke, Staufen, Germany) rotating at 16,000 rpm for 1 minute. Homogenization of emulsions was completed using an ultrasonic processor (Hielscher UP400S, power 400 W, frequency 24 kHz) and a sonotrode (diameter 7 mm, approx. length 100 mm, titanium) at room temperature for 75 seconds and 75% amplitude of the ultrasound maximal power. This emulsification time was enough to disperse the oil in small droplets and to avoid excessive heating of the sample.
Stability of emulsions to creaming and flocculation was followed over 33 days of storage at 4° C.

[3] = Foaming properties (Foamscan); format: physicochemical; parameters: key to foam capacity: FC = volume of foam / volume of gas injected; key to foam expansion: FE = volume of foam / volume of liquid in the foam; conditions: for foam capacity / foam expansion / foam liquid stability: 55 μM BLG; for foam volume stability: over 30 min
Experimental: Foaming properties of samples (prepared as described in example 1) were evaluated using the standardized method proposed by Guillerme C, Loisel W, Bertrand D, Popineau Y. Study of foam stability by video image analysis: Relationship with the quantity of liquid in the foams. 1993. J Text Stud, 24, 287-302. The apparatus used was a standard version of the Foamscan™ from Teclis-ITConcept (Longessaigne, France). The principle of the method is to foam a definite quantity of protein dispersion by infusing gas into it through a glass frit of specific porosity. The gas flow and duration of the bubbling are controlled. The foam is generated on the surface of the liquid and it rises in the glass tube where its height is followed in real time by image analysis using a charged-coupled device (CCD) camera. The amount of liquid incorporated into the foam and the drainage rate are followed by measuring the conductivity as a function of time and with reference to the conductivity of the solution before bubbling, in the cuvette (with the remaining liquid phase), and at electrodes placed at different heights of the tube (Kato A, Takahashi A, Matsudomi N, Kobayashi K. Determination of foaming properties of proteins by conductivity measurements. 1983. J Food Sci, 48, 62-65).
BLG-AITC conjugates were prepared as described in example 1 and then acidified to pH 7.0 or 4.0 by adding 1M HCl. The amount of HCl added was ˜0.02% and ˜0.8% of the total volume, for neutral and acidic pH adjustment, respectively. 12 mL of each sample at both pHs, was put into 12 mL-glass vial and heated on 85° C. for 15 min, in addition to 5 min necessary for temperature in the vial to reach 85° C. The heating was done without agitation, in a temperature-controlled water-bath. Subsequently, samples were let to cool down at room temperature over 40 minutes under a mild agitation, and then put on ice until further analysis.
A volume of 20 mL of the sample solution (non-heated and heated BLG-AITC covalent complexes with the AITC to BLG molar ratio 0.5, 1 and 2, at both pH), diluted to 55 μM BLG (0.1%) was placed in the cuvette. Nitrogen at the flow rate 80 mL/min was bubbled in through the glass frit of porosity 4, creating the air bubbles with diameters between 10 and 16 μm. This flow rate allowed efficient foam formation before strong gravitational drainage occurred. The bubbling was stopped when the foam volume of 110 cm^3 was reached. Subsequently, foam capacity (FC=volume of foam/volume of gas injected) and foam expansion (FE=volume of the foam/volume of the liquid in the foam) were calculated. Foam volume and liquid stability (time for the foam to drain 50% of its initial liquid content) were followed over next 30 min at 24±1° C.

[4] = test system: Staphylococcus aureus; experiment: Antimicrobial activity, optical density decrease at 600 nm; format: cell-based; conditions: 0.5 mM BLG, AITC/BLG molar ratio 1 to 20, 24 h at 37° C.
Experimental: (§1) Antimicrobial properties of BLG-AITC conjugates were tested against Escherichia coli and Staphylococcus aureus. Single colony of each bacteria strain, previously grown on agar plates, was inoculated into 10 mL of brain-heart infusion (BHI) broth and incubated 24 h at 37° C. under agitation. For antimicrobial properties evaluation these pre-cultures were diluted 100 times in BHI broth.
(§2) BLG-AITC covalent complexes, with the AITC to BLG molar ratio 1, 2, 10 and 20, were prepared as described in the example 1 with the difference that 200 mM AITC solution was prepared in DMSO. Samples were subsequently acidified to pH 7.0 and then concentrated 5 times by using Centrisart® I centrifugal ultrafiltration units with cellulose triacetate ultrafilters having the molecular weight cut-off of 10 kDa (Sartorious, Germany) according to manufactures instructions.
(§3) An aliquot of 600 μL of concentrated samples was added to 2.4 mL of BHI broth containing E. coli or S. aureus to reach the starting concentrations of BLG (0.5 mM) and corresponding concentration of AITC. Controls in which 600 μL of 5% DMSO or water was added were prepared as well. Test tubes with sample mixtures were then incubated 24 h at 37° C. under stirring. Subsequently, optical densities (OD) of samples were measured at 600 nm. To evaluate the inhibition of bacteria growth, ODs of samples containing BLG-AITC covalent complexes were normalized by OD of the corresponding control and are expressed as the OD decrease in percentage.

[5] = test system: Escherichia coli; experiment: as above; format: cell-based; conditions: 0.5 mM BLG, AITC/BLG molar ratio 1 to 20; 24 h at 37° C.; OD 600 nm
Experimental: as §1, §2, §3

[6] = pH 4.0 with heating (85° C., 15 min)
[7] = pH 7.0 with heating (85° C., 15 min)
[8] = pH 7.0, with or without heat treatment

| Compound | foam capacity [3, 6] | foam expansion [3, 6] | foam liquid stability [3, 6] | foam capacity ([3]; pH 4.0 without heating) | foam expansion ([3]; pH 4.0 without heating) | foam liquid stability ([3]; pH 4.0 without heating) | foam capacity [3, 7] | foam expansion [3, 7] | foam liquid stability [3, 7] | foam capacity ([3]; pH 7.0 without heating) | foam expansion ([3]; pH 7.0 without heating) | foam liquid stability ([3]; pH 7.0 without heating) | foam volume stability [3, 8] | also measured |
| --- | --- | --- | --- | --- | --- | --- | --- | --- | --- | --- | --- | --- | --- | --- |
| C=CCN=C=S [AITC, Allyl-isothiocyanate] |  |  |  |  |  |  |  |  |  |  |  |  |  | dissociation constant KD ([1]; -SH group of BLG): very low; dissociation constant KD ([1]; amino groups of BLG): high; number of possible binding sites ([1]; amino groups of BLG): larger number of possible binding sites; maximum number of saturation site (nmax) ([1]; single free sulfhydryl group of BLG, one site binding fit): 0.84±0.06; ability to emulsify the oil ([2]; 0.25 mM AITC alone, 10% of sunflower oil): not able to properly emulsify; oiling-off ([2]; 0.25 mM AITC alone, at day=0 and after 24 days of storage): significant oiling-off |
| AITC/BLG ratio 0.5: BLG-AITC covalent complex, AITC to BLG molar mixing ratio 0.5 | 1.16 ± 0.00 | 7.1 ± 0.2 | 200.0 ± 6.9 s | 1.18 ± 0.01 | 7.1 ± 0.0 | 204.5 ± 8.5 s | 1.14 ± 0.01 | 6.7 ± 0.1 | 133.0 ± 4.7 s | 1.16 ± 0.01 | 6.8 ± 0.1 | 152.0 ± 3.3 s |  |  |
| AITC/BLG ratio 1: BLG-AITC covalent complex, AITC to BLG molar mixing ratio 1 | 1.17 ± 0.01 | 7.3 ± 0.2 | 190.5 ± 2.4 s | 1.18 ± 0.01 | 7.1 ± 0.1 | 217.5 ± 1.0 s | 1.14 ± 0.02 | 6.8 ± 0.1 | 130.0 ± 4.2 s | 1.16 ± 0.01 | 6.7 ± 0.1 | 159.0 ± 1.8 s | best foam stability |  |
| AITC/BLG ratio 2: BLG-AITC covalent complex, AITC to BLG molar mixing ratio 2 | 1.16 ± 0.01 | 7.1 ± 0.2 | 193.0 ± 2.7 s | 1.18 ± 0.01 | 7.0 ± 0.0 | 216.3 ± 5.0 s | 1.16 ± 0.01 | 6.7 ± 0.1 | 128.0 ± 3.8 s | 1.17 ± 0.01 | 6.8 ± 0.1 | 145.5 ± 3.9 s |  |  |
| BLG-AITC covalent complexes: covalent complexes of β-lactoglobulin and allyl isothiocyanate, various AITC to BLG molar ratios |  |  |  |  |  |  |  |  |  |  |  |  | volume stable foams | sensitivity compared with E. coli [4]: more sensitive; reduction of optical density (OD) ([4]; OD 600 nm): able to reduce the optical density; reduction of optical density (OD) [5]: able to reduce the optical density; improvement of foam liquid stability (more time stability) ([3]; foam produced in acidic conditions versus pH 7.0): more than 30%; foam volume stability ([3]; pH 4.0, without or with heating): more volume stable than at pH 7.0; stability of emulsions to creaming and flocculation ([2]; 10% sunflower oil, molar ratio 1:1, 0.25 mM BLG, 33 days of storage at 4° C., neutral or acidic pH, with or without heat treatment): very stable emulsions |
